Data as given in patent publication US20170173105A1, “AUTOASSEMBLING PEPTIDES FOR THE TREATMENT OF PULMONARY LEAKAGE” (3-D MATRIX, LTD., priority 2014, published 2017).

Key:
Assay type in all cases: physicochemical
[1] = Gelation of peptide solutions on saline buffer treatment (time sweep); settings: saline buffer (0.15 M of NaCl); IEIK13 1.5%, KLD12 1.5%, PuraMatrix 2.5%
Procedure: The effect of salt ionic strength level surrounding peptide solution on the properties of peptide solutions was evaluated to identify the possibility of peptide gelation when the peptide solution is placed into the environment where salt ionic strength level is high. […] Without pH effect, the effect of saline treatment on gelation of peptide solutions were evaluated. […] This is because IEIK13 is much more sensitive to salt ionic strength levels. Fast gelation of IEIK13 at the salt ionic strength level similar to body fluid isotonic salt level may generally improve its function and gelation speed for various clinical applications. The results are shown in FIG. 19 for IEIK13, KLD12 and PuraMatrix® solutions. Time sweep tests were performed at 1 rad/sec and at 1 Pa with 20 mm plates and 500 μm gap distance. […]

[2] = pH and appearance of 2.5% peptide solutions after adding 0.1 N NaOH
Procedure: To adjust the pH level of the peptide solutions by way of example, 0.1 N NaOH was added to 2 mL of 2.5% peptide solutions and their pH and appearance were measured.

[3] = Rheological properties of pH adjusted peptide solutions and hydrogels (stress/frequency sweep)
Procedure: Based on the visual observation of the effect of pH level on the properties of the peptide solutions, the effect on the rheological properties of the peptide solutions after adjusting their pH level to 3.4 (PuraMatrix® and KLD12) or 3.7 (IEIK13) was evaluated. If the pH levels of peptide solutions are higher than 3.5 (PuraMatrix® and KLD12) or 3.7 (IEIK13), the peptide solution began phase separation becoming cloudy. The rheological properties of PuraMatrix®, KLD12 and IEIK13 solutions were higher at pH 3.4. The results are shown in FIG. 2 for KLD12 1%, FIG. 3 for IEIK13 1%, and FIGS. 4-5 for PuraMatrix® 1% and 2.5%, respectively. Stress sweep tests were performed at 10 rad/s. Frequency sweep tests were performed at 1 Pa.
Based on the results of the effect on the rheological properties of the peptide solutions after adjusting their pH level to 3.4 (PuraMatrix® and KLD12) or 3.7 (IEIK13), the effect on the rheological properties of the peptide solutions at various pH levels was evaluated. […] The rheological properties of peptides were evaluated at various concentrations using a rheometer (DHR-1, TA Instruments) with 20 mm plates. The results are shown in FIG. 6A for PuraMatrix® 2.5% solution and FIG. 6B for IEIK13 1.5% solution, respectively. Frequency sweep tests were performed from 1 rad/sec to 10 rad/sec at 1 Pa and the storage modulus at 1 rad/sec was selected for data.
Based on the results of the effect on the rheological properties of the peptide solutions after adjusting their pH level, the effect on the rheological properties of the peptide hydrogels at various pH after DMEM treatment was evaluated and compared to the effect on the rheological properties of the peptide solutions at various pH before DMEM treatment. […] The results are shown in FIGS. 7A-7B for PuraMatrix® and FIGS. 8A-8B for IEIK (SEQ ID NO: 5), respectively. Frequency sweep tests were performed from 1 rad/sec to 10 rad/sec at 1 Pa and the storage modulus at 1 rad/sec was selected for data.

[4] = Appearance of 1.5% peptide solutions with various salts at room temperature; settings: for Appearance: IEIK13 solution, room temperature
Procedure: The effect of salt ionic strength level on the properties of peptide solutions was evaluated to identify optimized salt ionic strength levels for the peptides as described herein. Increasing the salt ionic strength level of PuraMatrix® and other peptides may generally improve its function and mechanical strength for various clinical applications. To adjust the salt ionic strength of the peptide solutions by way of example, various salt buffer solutions including NaCl, KCl, MgCl2, CaCl2 and DPBS (10×) were added to 2 mL of 1.5% peptide solutions.

[5] = 0.1 N NaOH 0 μL/mL added in 2.5% solution, conc. 2.5%
[6] = 0.1 N NaOH 50 μL/mL added in 2.5% solution, conc. 2.38%
[7] = 0.1 N NaOH 100 μL/mL added in 2.5% solution, conc. 2.27%
[8] = 0.1 N NaOH 350 μL/mL added in 2.5% solution, conc. 1.85%
[9] = pH increase up to approximately 3.5 or less with 0.1 N NaOH, 2.5% solutions

Ile-Glu-Ile-Lys-Ile-Glu-Ile-Lys-Ile-Glu-Ile-Lys-Ile [IEIK13]
gelation after saline buffer treatment [1]: fast gelation
Appearance [2, 5]: Clear, thick gel
Peptide solution pH [2, 5]: 1.8
Appearance [2, 6]: Clear, thick gel
Peptide solution pH [2, 6]: 2.1
Appearance [2, 7]: Clear, thick gel
Peptide solution pH [2, 7]: 2.2
Peptide solution pH ([2]; 0.1 N NaOH 150 μL/mL added in 2.5% solution, conc. 2.17%): 2.7
Peptide solution pH ([2]; 0.1 N NaOH 200 μL/mL added in 2.5% solution, conc. 2.08%): 3.0
Peptide solution pH ([2]; 0.1 N NaOH 250 μL/mL added in 2.5% solution, conc. 2.0%): 3.3
Peptide solution pH ([2]; 0.1 N NaOH 275 μL/mL added in 2.5% solution, conc. 1.96%): 3.7
Peptide solution pH ([2]; 0.1 N NaOH 300 μL/mL added in 2.5% solution, conc. 1.92%): 4.0
Appearance [2, 8]: Cloudy, brittle gel
Peptide solution pH [2, 8]: 4.5
Peptide solution pH ([2]; 0.1 N NaOH 400 μL/mL added in 2.5% solution, conc. 1.79%): 5.4
Peptide solution pH ([2]; last line per peptide, NaOH volume and conc. not given): 7.0
apparent stiffness on pH increase [2, 9]: increased
color of solution on pH increase [2, 9]: did not change the clear color
pH level at which the peptide solution began phase separation becoming cloudy [3]: > 3.7
rheological property of solutions at various pH levels ([3]; PuraMatrix 2.5% solution, IEIK13 1.5% solution, storage modulus at 1 rad/sec): increases with pH adjustment up to 3.4
rheological property of hydrogels after DMEM treatment at various pH ([3]; after DMEM treatment, storage modulus at 1 rad/sec): increases with pH adjustment up to 3.4
rheological properties of solutions after pH adjustment ([3]; at pH 3.4 (IEIK13 adjusted to 3.7), KLD12 1%, IEIK13 1%, PuraMatrix 1% and 2.5%): higher
Appearance ([4]; CaCl2 0 M, ionic strength 0 M, conc. 1.5%): Clear, thick gel
Appearance ([4]; CaCl2 0.005 M, ionic strength 0.015 M, conc. 1.46%): Clear, thick, stiffer gel
Appearance ([4]; CaCl2 0.0067 M, ionic strength 0.02 M, conc. 1.45%): Clear, thick, stiffer gel
Appearance ([4]; CaCl2 0.0083 M, ionic strength 0.025 M, conc. 1.44%): Clear, thick, stiffer gel
Appearance ([4]; CaCl2 0.01 M, ionic strength 0.03 M, conc. 1.43%): Clear, thick, stiffer gel
Appearance ([4]; CaCl2 0.0117 M, ionic strength 0.035 M, conc. 1.41%): Clear, thick, stiffer gel
Appearance ([4]; CaCl2 0.0133 M, ionic strength 0.04 M, conc. 1.40%): Slightly cloudy, thick, stiffer gel
Appearance ([4]; CaCl2 0.015 M, ionic strength 0.045 M, conc. 1.39%): Slightly cloudy, thick, stiffer gel
Appearance ([4]; CaCl2 0.0167 M, ionic strength 0.05 M, conc. 1.37%): Slightly cloudy, brittle gel
Appearance ([4]; CaCl2 0.0183 M, ionic strength 0.055 M, conc. 1.36%): Cloudy, phase-separated
Appearance ([4]; KCl 0 M, ionic strength 0 M, conc. 1.5%): Clear, thick gel
Appearance ([4]; KCl 0.005 M, ionic strength 0.005 M, conc. 1.46%): Clear, thick, stiffer gel
Appearance ([4]; KCl 0.01 M, ionic strength 0.01 M, conc. 1.43%): Clear, thick, stiffer gel
Appearance ([4]; KCl 0.015 M, ionic strength 0.015 M, conc. 1.39%): Clear, thick, stiffer gel
Appearance ([4]; KCl 0.02 M, ionic strength 0.02 M, conc. 1.35%): Clear, thick, stiffer gel
Appearance ([4]; KCl 0.025 M, ionic strength 0.025 M, conc. 1.31%): Clear, thick, stiffer gel
Appearance ([4]; KCl 0.03 M, ionic strength 0.03 M, conc. 1.27%): Clear, thick, stiffer gel
Appearance ([4]; KCl 0.035 M, ionic strength 0.035 M, conc. 1.24%): Slightly cloudy, brittle gel
Appearance ([4]; KCl 0.04 M, ionic strength 0.04 M, conc. 1.2%): Slightly cloudy, brittle
Appearance ([4]; KCl 0.045 M, ionic strength 0.045 M, conc. 1.16%): Cloudy, phase-separated
Appearance ([4]; MgCl2 0 M, ionic strength 0 M, conc. 1.5%): Clear, thick gel
Appearance ([4]; MgCl2 0.005 M, ionic strength 0.015 M, conc. 1.46%): Clear, thick, stiffer gel
Appearance ([4]; MgCl2 0.0067 M, ionic strength 0.02 M, conc. 1.45%): Clear, thick, stiffer gel
Appearance ([4]; MgCl2 0.0083 M, ionic strength 0.025 M, conc. 1.44%): Clear, thick, stiffer gel
Appearance ([4]; MgCl2 0.01 M, ionic strength 0.03 M, conc. 1.43%): Clear, thick, stiffer gel
Appearance ([4]; MgCl2 0.0117 M, ionic strength 0.035 M, conc. 1.41%): Clear, thick, stiffer gel
Appearance ([4]; MgCl2 0.0133 M, ionic strength 0.04 M, conc. 1.40%): Slightly cloudy, thick, stiffer gel
Appearance ([4]; MgCl2 0.015 M, ionic strength 0.045 M, conc. 1.39%): Slightly cloudy, stiffer gel
Appearance ([4]; MgCl2 0.0167 M, ionic strength 0.05 M, conc. 1.37%): Slightly cloudy, brittle gel
Appearance ([4]; MgCl2 0.0183 M, ionic strength 0.055 M, conc. 1.36%): Cloudy, phase-separated
Appearance ([4]; NaCl 0 M, ionic strength 0 M, conc. 1.5%): Clear, thick gel
Appearance ([4]; NaCl 0.005 M, ionic strength 0.005 M, conc. 1.46%): Clear, thick, stiffer gel
Appearance ([4]; NaCl 0.01 M, ionic strength 0.01 M, conc. 1.43%): Clear, thick, stiffer gel
Appearance ([4]; NaCl 0.015 M, ionic strength 0.015 M, conc. 1.39%): Clear, thick, stiffer gel
Appearance ([4]; NaCl 0.02 M, ionic strength 0.02 M, conc. 1.35%): Clear, thick, stiffer gel
Appearance ([4]; NaCl 0.025 M, ionic strength 0.025 M, conc. 1.31%): Clear, thick, stiffer gel
Appearance ([4]; NaCl 0.03 M, ionic strength 0.03 M, conc. 1.27%): Slightly cloudy, thick, stiffer gel
Appearance ([4]; NaCl 0.035 M, ionic strength 0.035 M, conc. 1.24%): Slightly cloudy, brittle gel
Appearance ([4]; NaCl 0.04 M, ionic strength 0.04 M, conc. 1.2%): Cloudy, phase-separated
apparent stiffness on salt ionic strength increase ([4]; up to the ionic strength at which solutions stay clear): increased
